Test results published in article PMC11931385, “Structural and functional analysis of cancer-associated missense variants in the retinoblastoma protein pocket domain” (The Journal of Biological Chemistry, 2025).
Positions count from the first letter of the chain named. Names may count otherwise. No end group written: not given here. TMR = tetramethyl rhodamine dye

T1: Rb^P S463L (human, UniProt P06400 380-788, S463L)
T1 construct: also called variant 10
T1 sequence (looked up): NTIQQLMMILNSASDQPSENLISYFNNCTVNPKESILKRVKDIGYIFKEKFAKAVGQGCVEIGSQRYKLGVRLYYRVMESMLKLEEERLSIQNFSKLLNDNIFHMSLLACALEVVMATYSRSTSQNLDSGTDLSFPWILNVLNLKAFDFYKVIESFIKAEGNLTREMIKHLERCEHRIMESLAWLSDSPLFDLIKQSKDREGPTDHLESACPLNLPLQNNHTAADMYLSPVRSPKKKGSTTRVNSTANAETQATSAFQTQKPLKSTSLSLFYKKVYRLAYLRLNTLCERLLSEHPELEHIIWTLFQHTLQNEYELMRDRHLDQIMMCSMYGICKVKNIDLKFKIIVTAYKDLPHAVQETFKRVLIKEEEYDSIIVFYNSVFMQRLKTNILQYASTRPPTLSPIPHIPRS

T2: Rb^P S474R (human, UniProt P06400 380-788, S474R)
T2 construct: also called variant 13
T2 sequence (looked up): T1 sequence (looked up) with L84S, S95R

T3: Rb^P E554K (human, UniProt P06400 380-788, E554K)
T3 construct: also called variant 28
T3 sequence (looked up): T1 sequence (looked up) with L84S, E175K

T4: Rb^P D697E (human, UniProt P06400 380-788, D697E)
T4 construct: also called variant 62
T4 sequence (looked up): T1 sequence (looked up) with L84S, D318E

T5: Rb^P H699P (human, UniProt P06400 380-788, H699P)
T5 construct: also called variant 63
T5 sequence (looked up): T1 sequence (looked up) with L84S, H320P

B1: TMR-E2F1^TD, peptide of the E2F1 transactivation domain (peptide)
peptide: {TMR}-GEGIRDLFDCDFGDLTPLD
notes: also called E2F^TD; source: synthetic peptide, bought: GenScript
B2: TMR-E7^LxCxE, LxCxE peptide of the E7 oncoprotein from HPV (peptide)
peptide: DLYCYEQLN
modifications: also: TMR label, position not given here
notes: source: synthetic peptide, bought: GenScript

Key:
Experiment in all cases: fluorescence polarisation; 37 °C, after the 25 °C reading ramped over 7 min to 37 °C and 2 min incubation; unlabeled Rb^P against 1.5 nM TMR-E2F1^TD or 7.5 nM TMR-E7^LxCxE; 25 mM Tris pH 8.0, 200 mM NaCl, 1 mM DTT, 0.1% Tween-20; apparent Kd
Conditions in all cases: both partners purified
Rb^P S463L = biological target: T1, Rb^P S463L
Rb^P S474R = biological target: T2, Rb^P S474R
Rb^P E554K = biological target: T3, Rb^P E554K
Rb^P D697E = biological target: T4, Rb^P D697E
Rb^P H699P = biological target: T5, Rb^P H699P

Binder | Kd (Rb^P S463L) | Kd (Rb^P S474R) | Kd (Rb^P E554K) | Kd (Rb^P D697E) | Kd (Rb^P H699P)
B1 | 41 nM | 580 nM | 3270 nM | 129 nM | 68 nM
B2 | 17 nM | 15 nM | 48 nM | 46 nM | 14 nM
